Test results: article doi:10.1101/2023.06.21.546005 (bioRxiv, 2023)

Biological target: the molecule itself
Assay: crystal structure

B1: Recombinant wild-type L-chain ferritin from horse spleen (natural protein, UniProt P02791 1-175, looked up)
chain: MSSQIRQNYSTEVEAAVNRLVNLYLRASYTYLSLGFYFDRDDVALEGVCHFFRELAEEKREGAERLLKMQNQRGGRALFQDLQKPSQDEWGTTLDAMKAAIVLEKSLNQALLDLHALGSAQADPHLCDFLESHFLDEEVKLIKKMGDHLTNIQRLVGSQAGLGEYLFERLTLKHD
stoichiometry N: 24

B2: Fr-A115G (natural protein, horse, UniProt P02791 1-175, looked up)
chain: MSSQIRQNYSTEVEAAVNRLVNLYLRASYTYLSLGFYFDRDDVALEGVCHFFRELAEEKREGAERLLKMQNQRGGRALFQDLQKPSQDEWGTTLDAMKAAIVLEKSLNQALLDLHGLGSAQADPHLCDFLESHFLDEEVKLIKKMGDHLTNIQRLVGSQAGLGEYLFERLTLKHD
binding result: binds

B3: Fr-A115T (natural protein, horse, UniProt P02791 1-175, looked up)
chain: MSSQIRQNYSTEVEAAVNRLVNLYLRASYTYLSLGFYFDRDDVALEGVCHFFRELAEEKREGAERLLKMQNQRGGRALFQDLQKPSQDEWGTTLDAMKAAIVLEKSLNQALLDLHTLGSAQADPHLCDFLESHFLDEEVKLIKKMGDHLTNIQRLVGSQAGLGEYLFERLTLKHD
binding result: binds

B4: Fr-S118A (natural protein, horse, UniProt P02791 1-175, looked up)
chain: MSSQIRQNYSTEVEAAVNRLVNLYLRASYTYLSLGFYFDRDDVALEGVCHFFRELAEEKREGAERLLKMQNQRGGRALFQDLQKPSQDEWGTTLDAMKAAIVLEKSLNQALLDLHALGAAQADPHLCDFLESHFLDEEVKLIKKMGDHLTNIQRLVGSQAGLGEYLFERLTLKHD
binding result: binds

B5: Fr-A115V (natural protein, horse, UniProt P02791 1-175, looked up)
chain: MSSQIRQNYSTEVEAAVNRLVNLYLRASYTYLSLGFYFDRDDVALEGVCHFFRELAEEKREGAERLLKMQNQRGGRALFQDLQKPSQDEWGTTLDAMKAAIVLEKSLNQALLDLHVLGSAQADPHLCDFLESHFLDEEVKLIKKMGDHLTNIQRLVGSQAGLGEYLFERLTLKHD
binding result: binds

B6: Fr-H114A (natural protein, horse, UniProt P02791 1-175, looked up)
chain: MSSQIRQNYSTEVEAAVNRLVNLYLRASYTYLSLGFYFDRDDVALEGVCHFFRELAEEKREGAERLLKMQNQRGGRALFQDLQKPSQDEWGTTLDAMKAAIVLEKSLNQALLDLAALGSAQADPHLCDFLESHFLDEEVKLIKKMGDHLTNIQRLVGSQAGLGEYLFERLTLKHD
binding result: binds
